Consider one molecule from article PMC7196836, “Molecular analysis of the ribosome recycling factor ABCE1 bound to the 30S post‐splitting complex” (The EMBO Journal, 2020).

The assay has as its target ribosomal protein uS12 of Thermococcus celer (T. celer (endogenous in T. celer cells), UniProt P29161 1-147). The assay is described as follows: cryo-EM structure; post-splitting complex from 1 nmol T. celer 70S split by ABCE1^IIEA (8 uM), aPelota and aRF1 (5 uM each), 0.5 mM AMP-PNP, 50 mM HEPES-KOH pH 7.5, 30 mM KCl, 10 mM MgCl2, 2 mM DTT, 65 °C 15 min; cross-linked with 1% formaldehyde; 30S fractions of a 10-30% sucrose gradient. The note with it: both partners purified.

B1: ABCE1^IIEA (E238A/E485A), hydrolysis-deficient ABCE1 from Saccharolobus solfataricus (enzyme)
chain: MRVAVINYDFCKPDKCNLECINFCPVDRSGGKAIELSEIVKGKPVIYEETCIGCGICVKKCPYEAISIVNLPDELEGEVIHRYKVNGFKLFGLPTPKNNTILGVLGKNGVGKTTVLKILAGEIIPNFGDPNSKVGKDEVLKRFRGKEIYNYFKELYSNELKIVHKIQYVEYASKFLKGTVNEILTKIDERGKKDEVKELLNMTNLWNKDANILSGGGLQRLLVAASLLREADVYIFDAPSSYLDVRERMNMAKAIRELLKNKYVIVVDHDLIVLDYLTDLIHIIYGESSVYGRVSKSYAARVGINNFLKGYLPAENMKIRPDEIKFMLKEVSDLDLSKDLKTKMKWTKIIKKLGDFQLVVDNGEAKEGEIIGILGPNGIGKTTFARILVGEITADEGSVTPEKQILSYKPQRIFPNYDGTVQQYLENASKDALSTSSWFFEEVTKRLNLHRLLESNVNDLSGGELQKLYIAATLAKEADLYVLDAPSSYLDVEERYIVAKAIKRVTRERKAVTFIIDHDLSIHDYIADRIIVFKGEPEKAGLATSPVTLKTGMNEFLRELEVTFRRDAETGRPRVNKIGSYLDRVQKERGDYYS
notes: ABCE1, ABC-type twin-ATPase, Saccharolobus solfataricus; both catalytic glutamates changed to alanine; Carries iron-sulfur clusters (FeSD); also called ABCE1 E238A/E485A; source: E. coli, recombinant (pSA4 plasmid), purified
Take B1: the binding result is reported as “binds”.
